Measured values taken from the domain aggregation screens of Martell et al. (2025).

Assay: soluble fraction after stress (log2 fold change); higher = more stays soluble; pooled small domains, quantitative proteomics
Details: stress: 50 degC
Summary of the method: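 Pooled custom libraries of small protein domains were measured in a high-throughput format, with quantitative proteomics as the read-out. Each library was stressed at 50°C. Aggregation propensity is given as the base-two logarithm of the fold change in how much of each protein stays soluble after the stress. Higher values mean a larger share of the protein remains in solution.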

Sequence	soluble fraction (log2)
HMRRSVYQANVLDAIKHLVDQNELATTKAIAEYIGDDYQGNVSRAIRELLADRKIKKLPKVGVLQPYEA	-0.285
HMSDPEAFIRQTVAAAEPEGIALSVLGKRVRGKFRTFKLRDLGYAQFRPYLGDLDGIKVEQRDGQSYARLD	-0.795
HMENVMLRNFAIQATEAGVIKLLEDQRTFVWGSNNKKFMTVPFDEHPYSAMAAFFKTDEGLEIYKSIEKKF	-1.71
HMITLPDFVGKDVETVKAWAKENGITLIVNKVEDSAKKDTVISQTPTTYDYSKIMKGSSFTVNVAKE	-0.0122
HMDKSPMIGTAEYEGVLYWRQTKDNGATWEWITDKNGDKMPVSGPAPAVGIDKDGYWTVNGESTGVLAKD	0.168
HMDGQPQLLIKNGQLLVSTALKNGMSANDLMFRLRTEGITDIRYVKRAVLEQNGQLTITQVGDD	-0.105
HMFEEPYLATYPVLIDPKLAFNVLDTMLEGLEVKMDQDEETGAISVLAPASIHTKITEYLDALSKQ	-0.159
HMGVGERIKARRKEIGLSAEQVAKELGVSPATVYRYESNDIMNMRIDKLEPIAKALHTTPAYLMGWE	-0.0318
HMSSRSLSYSDFIERVDAGQVSKVVMDGERLVVVGQDGTSYVTIKPPGDQVTENLSRELISKGVEVEAEPQ	0.0107
HMDSVTVPDISGYSPKAAEDSINNAGLKINEQGLSGSGDGQVVERTSPSAGSKVKKGDSVTVYYSKA	0.00106
HMKDPSLEHIDALAGKPFQAFPGQDHRAHITAHLNFMSTNMVRNNPSIMAAIQKNILEHISLMAQEQIQL	-0.783
HMGQKNEDESLAKFYVHKKGNQYGPYSLIQIREYLKNNSFSLDDLASWDGQSWKKISQIPNLN	-0.075
HMTATVPDSEAGIRLDVYAAALLGVSRAGAQKYIESGAVRVNGLPAPKNRRLESGDVIEAVLPDPE	0.157
HMGQISDDGALKKLASEVLAANPQALADWKAGKQQAVSFLVGQAMKASKGRGDAALLGELIRAALD	0.0134
HMTKASYKITTPSGVNVREGAGKRYAVRKAYPKGKTVTVTQTKEVNGNLWGKTSDGWFAIKYQGAVYASA	-0.97
HMNMLGSNIKYLRNRHKLSQQELSEKLGVPRSSLSDYERGHTQVGLDSLIKLADIFDVKIDDLLRSNLSHR	-0.0552
HMKITTKNYFKAIAEVGVENLPAALKKSHDLIEERTSKGADWSVYEHDAEVRRVFDLTFEKLFEFIDQ	-0.363
HMRVDLVQRLARHGLSPRQSAVAGGVLRGLDNGEISRQLYIAEQTVKDHLHEIYHRLGVHTRTELLIKVLG	-1.6
HMSYQADEIKEKLIDILQNQKTGLSGLEISERIGINRITMTKYLQVFAAEGFIKQKNIGNVIIWFIEDGTE	-0.181
HMTSAPHHIAAVLRDAIYRGVLEEGGPLHQARIAQSLGVSPIPLREALRLLETEGLVEFRGYRGAFVT	-0.492
HMQTFGTMIAALRKEQGMTQLELAEKMGVTDKAVSKWERDLSFPDVNSLPKLAEIFHVSVDEL	-0.229
HMGIAKYRQVTEWIQNRIATGELNRGDQIESENDISRTFGISRQTVRHALGLLEQQGILTRIQGRGTFVRD	-0.661
HMNSEEINDVRKAVDELPTHLREILLLNYFQQMSYVQISDSLEIPLGTVKSRLHAAVAAFRNAWQSSQEE	-0.617
HMTVEMYIGKTANVLETVTENNGRIAIFGEEWQAKSLNGETIEKGAQAKIVKNDSIIMYVVPI	0.0967
HMEIGELITLYRKQAGLTIDELSEKANVPKGTLNKIIGGITKAPTLETMRSIAYALGKKLADFDN	-0.34
HMPQVALAIDEMKRELASPDIVKTLLATTFKGLSEVNMRQAMLDGMIQGHTIADFFKKDVYAIPFGSGYSL	0.0921
HMIVVMKTSASERDLQEVIARIEQFGFATRSIVGSERATVSVLGAPLPDSLQEALERMPGVEEVVRITK	-0.344
HMKTALDEAKDFLNGALSKGHRPASDVVDEAKEASISEKTLKRAKLAIGIITRKEGFGSEGKWVWELPAR	-0.341

Sequence	soluble fraction (log2)
HMTDEYYSYIGKTGTTITVLRPAGIAEVEGERLNVVSEGEFIRKGAAILVKEVEGARILVEEVN	-0.381
HMETGKLIKELRLKKGMTQEELADKTEVSSRTIQRIENGEVDPRAYTLQMIARALEVDYSLFME	0.0531
HMKKDLATYAYEHIKQMVIDRELMPGERIQQEVLARELGISRTPLVTALNRLASENLVELEANKGFSVRRF	-0.0386
HMSEMVIPEDFLAALETNPQAKAFYATLNRQNQYAVYHRLQTAKRPETRAKRIADFVAQLAAGKRF	-0.355
HMSTINGIEKYLSSGLIPYIGPKTAKRIVEKFGLDTLEIIQYNPERLKEIEGIGDKKLKKIVEAFEEQG	-0.102
HMEEFIEHTVEKGEFLSAIIVAYNQHLKSKGFKSITTRDILNANPKLKPELIQVGQKIKIPRRKK	0.29
HMNTSITVPSLKGLSQEAATLKMERLGLHVEVSDTGFVRSLAFGTVLQQSIAPGEKVKPGRLVYITINSD	-1.96
HMLLLHINQMGVTEFSQLELNHVRSWLANLQIKGAARSSITRRVVSVRAFTYWGAKNGWLASDIGRDLVAP	-0.277
HMSNLGLQIVRTLTDAGKGVVFITHKLKEALTIADRINVLRRGKVVGDADPKTASESQIAEMMVGRPVQL	-0.144
HMGPVALGVTDGATYFSSVTITFRRGTAVLDGEPIASGHTVYKSGAHSLTLTAGGKTRTIAFTMDT	-4.23
HMEHPNNTELTQKLELGTELMQYGDYNYALKVFNNVIDSDPEWSEAWNKRATVYFLMSQFTDSLSDIDRV	0.32
HMDPTYYFNLYPNPSKDEVSLFTNFTGKINIEILDLAGKSILSDNPISTISLVSLKEGLYLVKVKS	-0.208
HMPNPALESARPAFEAFLSRFSDGEAMRGPAWGLWSLLHRKGNAPTASHAAGRDGMGVLAFLRHWQWG	-0.479
HMSSDLDQYMKNIRKQHNLSKREFAKQLGISAATIVRIENGITVSPSKNLISKLAYYLQKSEVEILQDIQS	-1.08
HMRVTEIDYGAFMKMIEEKNIGEVKVEDYEIVFTDKDNKNIYKTGIMDDPDLTQRLYNSGAVFA	0.0247
HMSLSDADVERLLEVAIDIESLEEREGLYYQANESEPYSGWGKLMYDSGQVERLVPYKDGRWEGLWTIW	-1.04
HMSDAPLLSIRSLAVAFDGTRVVDGVSFDVARGEVVALVGESGSGKTVTGLSLLDLVPPPGRRVGGEV	0.0423
HMHPTDMKLTARLEEGAQFVRTQQLSKAIEIFTEVIKLDQNWAEAWNKRATVFYMMGKFKQSQEDIDKVLA	-0.0571
HMKNIMRQWIELEPDQGKIRSKLYSLDRVVEETTNEVGMIKLLLEIDEKELNNLVSHNDIRLV	-0.21
HMGTWKKIGTMTATVNDLYVRETPNGYIMGFINKGTVVEVDGKTTGKWTHAKVEGIGVGWIWTGYLDK	-3.47
HMNYLDVNIPVTSAVWMGKQLPEMGTLIYLTPDKDVEGMLFIKQATKDKPDGEYIEAKVLGYKEGRVLFDF	-0.547
HMRKLHFVMSEIYEDHPWIGSKLQDVFLPKDIRVVLVERDSKQFMPNGQTLFELGDRLTLSALHYDPA	-3.02
HMSDESALIAAIEKAIAAQPETAEKVRNGHLPAAGALIGSVMKETKGQADAARVRELLLGLLGQ	0.139
HMVTFDEISQSLVRDVAARRSLSVQTLHAMVDRYNAGSSINAVANQYGIDRLKLREILIELGVHVAT	0.159
HMRLADHVVEKLLALVQERGLQPGQKLPAERQLAEVLGVSRTSVREAIQKLVSQGVLSARRGDGTYVQS	0.00808
HMDTNKMLIVNSISNGMKRLQELQDPQLAEIQKTFSGLDEQKATSAQLAQINNIINNRIAEIEG	0.145
HMFTDEELEHIRSALIQAGIRLSKELGLQKMSVEKLTAAVGIAKGSFYMFFGSKEDFILEVAEYTGAQ	-0.582
